According to the array DNA melting data of Ke et al.:

Assay: melting temperature; melt of duplexes
Details: sodium 0.0675 M; strand 1 µM

CGACGTGCTGGATGTGCTG+CAGCACATCCTGCACGTCG ((((((((.((((((((((+)))))))))).))))))))
Tm: 61.2 °C

CGACGTGCTGGATGTGCTG+CAGCACATCGAGCACGTCG (((((((((.(((((((((+))))))))).)))))))))
Tm: 59.3 °C

CGACGTGCTGGATGTGCTG+CAGCACATCGCGCACGTCG ((((((((..(((((((((+)))))))))..))))))))
Tm: 54.8 °C

CGACGTGCTGGATGTGCTG+CAGCACATCGTGCACGTCG ((((((((..(((((((((+)))))))))..))))))))
Tm: 53.2 °C

CGACGTGCTGGATGTGCTG+CAGCACATGAGGCACGTCG ((((((((...((((((((+))))))))...))))))))
Tm: 54 °C

CGACGTGCTGGATGTGCTG+CAGCACATGATGCACGTCG ((((((((...((((((((+))))))))...))))))))
Tm: 51.7 °C

CGACGTGCTGGATGTGCTG+CAGCACATGCTGCACGTCG ((((((((.(.((((((((+)))))))).).))))))))
Tm: 54.8 °C

CGACGTGCTGGATGTGCTG+CAGCACATGGAGCACGTCG (((((((((..((((((((+))))))))..)))))))))
Tm: 53.2 °C

CGACGTGCTGGATGTGCTG+CAGCACATGTGGCACGTCG ((((((((...((((((((+))))))))...))))))))
Tm: 52.6 °C

CGACGTGCTGGATGTGCTG+CAGCACATTACGCACGTCG ((((((((...((((((((+))))))))...))))))))
Tm: 51.1 °C

CGACGTGCTGGATGTGCTG+CAGCACATTATGCACGTCG ((((((((...((((((((+))))))))...))))))))
Tm: 52 °C

CGACGTGCTGGATGTGCTG+CAGCACATTGGGCACGTCG ((((((((...((((((((+))))))))...))))))))
Tm: 52 °C

CGACGTGCTGGATGTGCTG+CAGCACATTTGGCACGTCG ((((((((...((((((((+))))))))...))))))))
Tm: 51.8 °C

CGACGTGCTGTATGTGCTG+CAGCACATAAAGCACGTCG (((((((((.(((((((((+))))))))).)))))))))
Tm: 55.5 °C

CGACGTGCTGTATGTGCTG+CAGCACATAATGCACGTCG ((((((((..(((((((((+)))))))))..))))))))
Tm: 51.5 °C

CGACGTGCTGTATGTGCTG+CAGCACATACAGCACGTCG (((((((((((((((((((+)))))))))))))))))))
Tm: 62.1 °C

CGACGTGCTGTATGTGCTG+CAGCACATACCGCACGTCG ((((((((.((((((((((+)))))))))).))))))))
Tm: 55.2 °C

CGACGTGCTGTATGTGCTG+CAGCACATACTGCACGTCG ((((((((.((((((((((+)))))))))).))))))))
Tm: 57.8 °C

CGACGTGCTGTATGTGCTG+CAGCACATAGCGCACGTCG ((((((((..(((((((((+)))))))))..))))))))
Tm: 49.9 °C

CGACGTGCTGTATGTGCTG+CAGCACATAGGGCACGTCG ((((((((..(((((((((+)))))))))..))))))))
Tm: 52.2 °C

CGACGTGCTGTATGTGCTG+CAGCACATCATGCACGTCG ((((((((...((((((((+))))))))...))))))))
Tm: 50.9 °C

CGACGTGCTGTATGTGCTG+CAGCACATCCAGCACGTCG ((((((((((.((((((((+)))))))).))))))))))
Tm: 55.5 °C

CGACGTGCTGTATGTGCTG+CAGCACATCCCGCACGTCG ((((((((.(.((((((((+)))))))).).))))))))
Tm: 49.4 °C

CGACGTGCTGTATGTGCTG+CAGCACATCCGGCACGTCG ((((((((.(.((((((((+)))))))).).))))))))
Tm: 52.8 °C

CGACGTGCTGTATGTGCTG+CAGCACATCCTGCACGTCG ((((((((.(.((((((((+)))))))).).))))))))
Tm: 51.5 °C

CGACGTGCTGTATGTGCTG+CAGCACATCGGGCACGTCG ((((((((...((((((((+))))))))...))))))))
Tm: 50.6 °C

CGACGTGCTGTATGTGCTG+CAGCACATCGTGCACGTCG ((((((((...((((((((+))))))))...))))))))
Tm: 46.4 °C

CGACGTGCTGTATGTGCTG+CAGCACATCTTGCACGTCG ((((((((...((((((((+))))))))...))))))))
Tm: 49.9 °C

CGACGTGCTGTATGTGCTG+CAGCACATGAAGCACGTCG (((((((((..((((((((+))))))))..)))))))))
Tm: 54.9 °C

CGACGTGCTGTATGTGCTG+CAGCACATGCTGCACGTCG ((((((((.(.((((((((+)))))))).).))))))))
Tm: 54.1 °C

CGACGTGCTGTATGTGCTG+CAGCACATGGAGCACGTCG (((((((((..((((((((+))))))))..)))))))))
Tm: 55 °C

CGACGTGCTGTATGTGCTG+CAGCACATGGCGCACGTCG ((((((((...((((((((+))))))))...))))))))
Tm: 48.9 °C

CGACGTGCTGTATGTGCTG+CAGCACATGGGGCACGTCG ((((((((...((((((((+))))))))...))))))))
Tm: 51.4 °C

CGACGTGCTGTATGTGCTG+CAGCACATGTCGCACGTCG ((((((((...((((((((+))))))))...))))))))
Tm: 49.3 °C

CGACGTGCTGTATGTGCTG+CAGCACATTACGCACGTCG ((((((((...((((((((+))))))))...))))))))
Tm: 51 °C

CGACGTGCTGTATGTGCTG+CAGCACATTGCGCACGTCG ((((((((...((((((((+))))))))...))))))))
Tm: 47.9 °C

CGACGTGCTGTATGTGCTG+CAGCACATTTGGCACGTCG ((((((((...((((((((+))))))))...))))))))
Tm: 50.4 °C

CGACGTGCTTAATGTGCTG+CAGCACATAATGCACGTCG ((((((((.(.((((((((+)))))))).).))))))))
Tm: 51.5 °C

CGACGTGCTTAATGTGCTG+CAGCACATACGGCACGTCG ((((((((...((((((((+))))))))...))))))))
Tm: 48.3 °C

CGACGTGCTTAATGTGCTG+CAGCACATAGCGCACGTCG ((((((((...((((((((+))))))))...))))))))
Tm: 47.3 °C

CGACGTGCTTAATGTGCTG+CAGCACATAGGGCACGTCG ((((((((...((((((((+))))))))...))))))))
Tm: 50 °C

CGACGTGCTTAATGTGCTG+CAGCACATAGTGCACGTCG ((((((((...((((((((+))))))))...))))))))
Tm: 44 °C

CGACGTGCTTAATGTGCTG+CAGCACATATCGCACGTCG ((((((((...((((((((+))))))))...))))))))
Tm: 48 °C

CGACGTGCTTAATGTGCTG+CAGCACATCAGGCACGTCG ((((((((.(.((((((((+)))))))).).))))))))
Tm: 50.8 °C

CGACGTGCTTAATGTGCTG+CAGCACATCATGCACGTCG ((((((((.(.((((((((+)))))))).).))))))))
Tm: 50.3 °C

CGACGTGCTTAATGTGCTG+CAGCACATCCTGCACGTCG ((((((((...((((((((+))))))))...))))))))
Tm: 48.4 °C

CGACGTGCTTAATGTGCTG+CAGCACATCGCGCACGTCG ((((((((...((((((((+))))))))...))))))))
Tm: 46.7 °C

CGACGTGCTTAATGTGCTG+CAGCACATCGGGCACGTCG ((((((((...((((((((+))))))))...))))))))
Tm: 49.1 °C

CGACGTGCTTAATGTGCTG+CAGCACATCTCGCACGTCG ((((((((...((((((((+))))))))...))))))))
Tm: 47.8 °C

CGACGTGCTTAATGTGCTG+CAGCACATGAGGCACGTCG ((((((((.(.((((((((+)))))))).).))))))))
Tm: 52.7 °C

CGACGTGCTTAATGTGCTG+CAGCACATGATGCACGTCG ((((((((.(.((((((((+)))))))).).))))))))
Tm: 53 °C

CGACGTGCTTAATGTGCTG+CAGCACATGCTGCACGTCG ((((((((...((((((((+))))))))...))))))))
Tm: 49.1 °C

CGACGTGCTTAATGTGCTG+CAGCACATGGAGCACGTCG (((((((((..((((((((+))))))))..)))))))))
Tm: 54.4 °C

CGACGTGCTTAATGTGCTG+CAGCACATGTAGCACGTCG (((((((((..((((((((+))))))))..)))))))))
Tm: 53.4 °C

CGACGTGCTTAATGTGCTG+CAGCACATGTGGCACGTCG ((((((((...((((((((+))))))))...))))))))
Tm: 51.9 °C

CGACGTGCTTAATGTGCTG+CAGCACATTGCGCACGTCG ((((((((..(((((((((+)))))))))..))))))))
Tm: 50.1 °C

CGACGTGCTTAATGTGCTG+CAGCACATTGGGCACGTCG ((((((((..(((((((((+)))))))))..))))))))
Tm: 53.5 °C

CGACGTGCTTCATGTGCTG+CAGCACATAACGCACGTCG ((((((((.(.((((((((+)))))))).).))))))))
Tm: 49.3 °C

CGACGTGCTTCATGTGCTG+CAGCACATAAGGCACGTCG ((((((((.(.((((((((+)))))))).).))))))))
Tm: 50.6 °C

CGACGTGCTTCATGTGCTG+CAGCACATACCGCACGTCG ((((((((...((((((((+))))))))...))))))))
Tm: 47.3 °C

CGACGTGCTTCATGTGCTG+CAGCACATAGCGCACGTCG ((((((((...((((((((+))))))))...))))))))
Tm: 47.4 °C

CGACGTGCTTCATGTGCTG+CAGCACATAGTGCACGTCG ((((((((...((((((((+))))))))...))))))))
Tm: 44.4 °C

CGACGTGCTTCATGTGCTG+CAGCACATATCGCACGTCG ((((((((...((((((((+))))))))...))))))))
Tm: 47.5 °C

CGACGTGCTTCATGTGCTG+CAGCACATCAAGCACGTCG ((((((((((.((((((((+)))))))).))))))))))
Tm: 53.3 °C

CGACGTGCTTCATGTGCTG+CAGCACATCACGCACGTCG ((((((((.(.((((((((+)))))))).).))))))))
Tm: 47.8 °C

CGACGTGCTTCATGTGCTG+CAGCACATCAGGCACGTCG ((((((((.(.((((((((+)))))))).).))))))))
Tm: 49.1 °C

CGACGTGCTTCATGTGCTG+CAGCACATCATGCACGTCG ((((((((.(.((((((((+)))))))).).))))))))
Tm: 49.2 °C

CGACGTGCTTCATGTGCTG+CAGCACATCGCGCACGTCG ((((((((...((((((((+))))))))...))))))))
Tm: 46.2 °C

CGACGTGCTTCATGTGCTG+CAGCACATCGGGCACGTCG ((((((((...((((((((+))))))))...))))))))
Tm: 48.9 °C

CGACGTGCTTCATGTGCTG+CAGCACATGATGCACGTCG ((((((((.((((((((((+)))))))))).))))))))
Tm: 58.8 °C

CGACGTGCTTCATGTGCTG+CAGCACATGCTGCACGTCG ((((((((..(((((((((+)))))))))..))))))))
Tm: 53.1 °C

CGACGTGCTTCATGTGCTG+CAGCACATGTAGCACGTCG (((((((((.(((((((((+))))))))).)))))))))
Tm: 57 °C
